This test deals with carotenoependymin-Purple1 (Cep-Purple1) (Haliclona sp. (purple sponge)). Briefly: SEC; HPLC size-exclusion chromatography (TSKgel G3000SWXL), calibrated with molecular standards; native protein estimated at 41-43 kDa against 23 kDa on SDS-PAGE.

In general, stoichiometry N refers to the number of molecules, sites or subunits per partner or assembly. With “carotenoependymin-Purple1 (Cep-Purple1) (natural protein)”, the stoichiometry N is 2.

The record behind these values is publication PMC12654638.
